Assay results: the DeepSol protein solubility set

Assay: soluble on expression in E. coli; label from the status in PepcDB or PDB records

Sequence	soluble on expression in E. coli
MGKLIDIPIVVESGQKYKTSQGVTAIKDGIKSSGQDHERLPKPKWLRIVNHTTPAYSQVKEQVQKHRLATVCEEAKCPNISECWSHGTATIMLMGAVCTRACRFCSVDTGNPHGWLDAEEPENTAETVALMNLDYVVLTSVNRDDLPDGGANHYAKTIRAIKKRSPRTKVEALTPDFQGSERDVAVLLDSGVDVFAQNVETVERLTHPVRDNRAGYQQTLNVLAFAKKYRPDVLTKTSLMLGLGETDEEIIQTMDDLRTHHVDILTLGQYLQPTKNHLPIARYVTPETFSELRQIGLKKGFFEVASGPLVRSSYRADRVFKRDNLGLDV	not soluble
MSVSLEQTLGFRIKVTNVLDVVTEGRLYSFNSSNNTLTIQTTKKNQSPQNFKVIKCTFIKHLEVIGDKPSFNSFKKQQIKPSYVNVERVEKLLKESVIASKKKELLRGKGVSAEGQFIFDQIFKTIGDTKWVAKDIIILDDVKVQPPYKVEDIKVLHEGSNQSITLIQRIVERSWEQLEQDDGRKGG	soluble
MSLNRNHPANGWPLALLLAATLALHGCNEPTAATAAPANTTRHGDYTPLTVQHKLGTTVISQLPQRTVALDMNEVDFLDQLGVPVAGMPKDFVPDFLARYKDAGQTADVGSIVQPNLERVHAARPDLILITSLQANHYDELSEMAPTLHFDVDYRDSETGHVAMVRQHLLSLGQVFGKQGLAQRKADALEAKLAQARSVTRDRPERALVVLHNNGAFSAFGVQSRYGFIFNDLGVKPATTTLDTGLHGQPISSEFIQQANPDILYVVDRTAVMEHRPMMTADTLDNPLLRQTNAWKHGRVVFVDPQAWYVTAASPTSLALIADDVIRGYQDEGHHHHHH	soluble
MNVVSNTQLLEQRIADFFTLSDEHKKARVLLDTLACSCPARIFGGMVRDLGLYGVDGFSSDLDIVIGRSREELFQTLAELPVKQLRFNKFGGIRFRYHDFEFDIWNLNETWAFQEKLIFCEDESSLLNEVA	not soluble
MVSTLKRDEALFELIALEEKRQREGLELIASENFVSKQVREAVGSVLTNKYAEGYPGARYYGGCEVIDRVESLAIERAKALFGAAWANVQPHSGSQANMAVYMALMEPGDTLMGMDLAAGGHLTHGSRVNFSGKLYKVVSYGVRPDTELIDLEEVRRLALEHRPKVIVAGASAYPRFWDFKAFREIADEVGAYLVVDMAHFAGLVAAGLHPNPLPYAHVVTSTTHKTLRGPRGGLILSNDPELGKRIDKLIFPGIQGGPLEHVIAGKAVAFFEALQPEFKEYSRLVVENAKRLAEELARRGYRIVTGGTDNHLFLVDLRPKGLTGKEAEERLDAVGITVNKNAIPFDPKPPRVTSGIRIGTPAITTRGFTPEEMPLVAELIDRALLEGPSEALREEVRRLALAHPMP	soluble
MSLSAHPVPHAPAAPVCLAPRPAVPPTAVTVPPGAWDCHAHVLGPADLYPMQAERSYTPPDSSAAQYAALLDTLGLRRGVLVQPSVYGTDNRLLAQAVARPEWRGIAVLDPAADTRQVAALHAAGVRGFRLNLLFPGGPGLDALERSAALVAPFGWHAQLLVDVRILPGIEHRLARLPVPVVFDHLGHFPYELGTDWPGFHALLRRVAAGRTYVKLSGSYRLSARASHIADVAPIAQALVREAPQRLVWGSDWPHVGRFQDMPATHALLDALALWCPDPAARRAILVDTPTQLYSEGHHHHHH	not soluble
MFRLEDFNFHNKTVFLRVDLNSPMKDGKIISDARFKAVLPTIRYLIESGAKVVIGTHQGKPYSEDYTTTEEHARVLSELLDQHVEYIEDIFGRYAREKIKELKSGEVAILENLRFSAEEVKNKPIEECEKTFLVKKLSKVIDYVVNDAFATAHRSQPSLVGFARIKPMIMGFLMEKEIEALMRAYYSKDSPKIYVLGGAKVEDSLKVVENVLRRERADLVLTGGLVANVFTLAKGFDLGRKNVEFMKKKGLLDYVKHAEEILDEFYPYIRTPVDFAVDYKGERVEIDLLSENRGLLHQYQIMDIGKRTAEKYREILMKARIIVANGPMGVFEREEFAIGTVEVFKAIADSPAFSVLGGGHSIASIQKYGITGITHISTGGGAMLSFFAGEELPVLRALQISYEKFKEVVK	soluble
MGSDKIHHHHHHMKYLKQYMIIGAVTMITSCSDFLDTAPLDALSPATTWKTEDDAQKFAIGCYGGNNYDTSSWEDGGNILYLDCGSDFGYNNFEWENYKTIGNGTMTPSGAVASFYDFSVIRRCNTFLEKVKEIPFSNEQTKNDLIGQVRTIRAYRYFVMNWWYGGVPVIDNYNSADEAKVPRKSEEEVKNYVNTELDTAIGELNASPSERGRIAKGAAMAIRMRSALYYGDYVKAKEMAEAIMNLKQYDLEPDYSNLFKVAGQDSKEIILAVQYVNSTLELGTIGQMYNNGDGGWSSIVPTQNLVDTYEMADGLTKEESGSYDPNHPFAGRDPRMAMTIIYPGMDWNGTVVNTLDKTINGKDNANYPPSANNASKTALTWRKYLDEQYANGIWNTNACPIVIRYAEVLLTYAEAVNELSGPSADVYDKLDLIRGRVGMPKVDREKYASKETLRRLIRRERGVELAGEGVRRADILRWKDDNGKMVAETVLNGVLERVVGTVNYAETDPTKRAEIDTNAPATDKKIEDRVFKVHNRYNPIPQGAIDNNPNLEQNPGY	not soluble
MKKGVLIAFEGIDGSGKSSQATLLKDWIELKRDVYLTEWNSSDWIHDIIKEAKKKDLLTPLTFSLIHATDFSDRYERYILPMLKSGFIVISDRYIYTAYARDSVRGVDIDWVKKLYSFAIKPDITFYIRVSPDIALERIKKSKRKIKPQEAGADIFPGLSPEEGFLKYQGLITEVYDKLVKDENFIVIDGTKTPKEIQIQIRKFVGELIDNSF	soluble
MPFHIGSGCLPAIISNRRIYRIAWSDTPPEMSSWEKMKEFFCSTHQAEALECIWTICHPPAGTTREDVVSRFELLRTLAYDGWEENIHSGLHGENYFCILDEDSQEILSVTLDDVGNYTVNCQGYSETHHLTMATEPGVERTDITYNLTSDIDAAAYLEELKQNPIINNKIMNPVGQCESLMTPVSNFMNEKGFDNIRYRGIFIWDKPTEEIPTNHFAVVGNKEGKDYVFDVSAHQFENRGMSNLNGPLILSADEWVCKYRMATRRKLIYYTDFSNSSIAANAYDALPRELESESMAGKVFVTSPRWFNTFKKQKYSLIGKM	not soluble
STQACPQPKTLDEFTIIQNLQPQYQFRDYFIATCKQGYQLIEGNQVLHSFTAVCQDDGTWHRAMPRCKIKDCGQPRNLPNGDFRYTTTMGVNTYKARIQYYCHEPYYKMQTRAGSRESEQGVYTCTAQGIWKNEQKGEKIPRCLPVCGKPVNPVEQRQR	soluble
MSLTTDVKDELSRLVVKSVSARRAEVTSLLRFAGGLHIVGGRVVVEAELDLGSIARRLRKEIFELYGYTAVVHVLSASGIRKSTRYVLRVANDGEALARQTGLLDMRGRPVRGLPAQVVGGSIDDAEAAWRGAFLAHGSLTEPGRSSALEVSCPGPEAALALVGAARRLGVGAKAREVRGADRVVVRDGEAIGALLTRMGAQDTRLVWEERRLRREVRATANRLANFDDANLRRSARAAVAAAARVERALEILGDTVPEHLASAGKLRVEHRQASLEELGRLADPPMTKDAVAGRIRRLLSMADRKAKVDGIPDTESVVTPDLLEDAEGHHHHHH	soluble
MSLENPTSIQIWHYYNGQQKMAFDKLVKEFNDTVGAEKGIIVEAFSQGNVVDLSEKVLDSANKKVGSEDVPNIFAAYSDTAYEMDKLGLLVDMDKYISKEELNEYIDEYVEEGRINSKDEFKLFPIAKSTEILMLNKTDWDKFAKATNSNINDIKTIEGLVETSKKYYEWTDSLTKEPNDGKAFFGRDALANYIIIGSKQLGVEIFSVKDGKVTLNIDEKVMKKLWDNFYVPYINGYFASYGKFRSDDAKTGDILALVGSSSGAAYFPDRVMLNDNESYNIETSVFQAPRFKGEGKYAVQQGAGMAVTKSTKEEEYASVEFLKWFTDKEPNIKFSIASGYLPVKKKTNDLDVIKEVMKKDNLSLSDKVEGSIASSIEQINSCNLYTNKAFDGGTKARQILEYSMLDKAKEDSNKINELVKSGTSKKDAVAQFNNDKNFKTWFEIFKAELENAIKEGHHHHHH	soluble
MEYSRDSAEMMMETKRNVYSLEDNKIKRHKSSDLSFSSKERKDKLAERISALQQLVSPYGKTDTASVLLEGMQYIQFLQEQVKVLSAPYLQATPSTTEEEVEEYSLRSKGLCLVPLEYTSEVAQTNGADIWAPVKTPTSSHAFNLSSSNSPFQ	not soluble
MKSLQIYLFLFLSVFALGACIQNDIPYPYIKGEITAFEVEGQTGDAEINKNSRTIVVEVGDEVDIEELRITRFVVNEEATYSIDEQYCVSPNKFPSAGFSALADLPAGADTRVDFSKTVPVLLRTYQDYQWMITVKQTIERVVEVENQALPAIIDDKNHTVLVYVSQKQDLSAVKITKMILGGSKATITPDPSTVTNFRRPQEFVVNRFDKEELWTVDVVRTTSTGTTGSADVWATRATLNGGMKQGTTPRVEYRKKSEDTWTVVPETDVKLESGTTFSTTLTGLQDGTDYVWRVVVEEVPSTESGFTTEKIQEIPNLNFDTWSQNPTGTFKKSWYPNADGSNSFWATGNDGVTSSLAGSRDSSTRPEEKSVVNGKAAYMVTLGSVPLVGVAAGNLFIGDYKTNAQSPKDSPKFGRSFTGARPTGLKGWYKYTSKPVDYVGNPDNLKNDECHIYLRLWDDKDNEIGYGEFIGKETVTQYTQFRFDVTYTNKTAKPAKITIVATSSHYGGDFTGMKVTGSVGVGSELWVDEFELLYELEHHHHHH	soluble
MKDPKAPIGVFDSGVGGLTVLKALRRLLPREEFLYFGDTARVPYGGKPLAMVRRFAWEIAGFLLRQGVKAIVVACNTASSAALPDLAEDLSVPVFGVVEPVARAVRGFRKVGLIGTQATVESGAYPRYVDLACAKACPLFVPLVEEGLWDDPVALLVARHYLEDAPKDLEALILGCTHYPFLKGAIGAVLPGVALLDSAELTAQEVARALEAEGLLNPEGRGRTFHLVTGDPEAYRALAERLGERVEAVRRVSLEEL	soluble
MGSDKIHHHHHHMRILILGAGKMGSFFTDILSFQHETAVFDVNPHQLRFVYNTYRFTTLEEIKEFEPELVINAATVKYTLDAFRKILPVLPKDCILSDIASVKTGLKKFYEESGFRYVSTHPMFGPTFASLSNLSSESAIIISESDHLGKVFFKDLYNSLNLNIFEYTFDEHDETVAYSLSIPFVSTFVFAAVMKHQEAPGTTFKKHMAIAKGLLSEDDYLLQEILFNPRTPSQVENIRTELKQLLEIITNKDAEGMKKYLTKIREKIK	not soluble
MAFDAARYVHRYYASLAPAPGNEYPRLRAWEYLWEYVWDPSRSWDDLTAPEQLDTTALHLGFYLANWGMFRGSSGLLQNSNLDLMKALARQLFSGAGPELFELSLVDFAGNGARLAHNRKLLETVLGSMDALSSRVSWTDTLKSKILLGVWGEFPALDRHYVAACRALYPRRGLTSVNGGTLTALHRLIGEERLSFPRLETARKGLLYPTGRLADMAFFQYGLENALEHHHHHH	soluble
MSLSVAIIGPGAVGTTIAYELQQSLPHTTLIGRHAKTITYYTVPHAPAQDIVVKGYEDVTNTFDVIIIAVKTHQLDAVIPHLTYLAHEDTLIILAQNGYGQLEHIPFKNVCQAVVYISGQKKGDVVTHFRDYQLRIQDNALTRQFRDLVQDSQIDIVLEANIQQAIWYKLLVNLGINSITALGRQTVAIMHNPEIRILCRQLLLDGCRVAQAEGLNFSEQTVDTIMTIYQGYPDEMGTSMYYDIVHQQPLEVEAIQGFIYRRAREHNLDTPYLDTIYSFLRAYQQNEGHHHHHH	soluble
